# Experimental data taken from IntAct's records for PubMed 19765570.
# B1: Guanine nucleotide-binding protein alpha-4 subunit (Dictyostelium discoideum (Slime mold)), P34042 (parent)
# chain: MRFKCFGSEETEQSSKIDKSIETDRRKLRKDVKLLLLGPGESGKSTIFKQMKIIQEDGGYSVEELLEYRAFVYSNCISQMEALLTASAKLNIELEVENKQRAANVLRRTIGNEPWLLLAADIKHLWEDKGIKETYAQKDKHFQLNDSAAYFFDNIDRYMREDFVPNEQDVLRCRVRTTGIQESEFTFDKIRLKIVDVGGQRSQRRKWIHCFDCVTAVIFVAAMSDYDQVLREDESVNRTRESLALFKEIVNCDYFKETPIVLFLNKKDLFKEKLKRVPLQSCFSDYTGPNKYKDAAMFIQSQYLAQGPSPRTIYTHATCAVDTENIKFVFRAVRQTILSQALEHF
# partner: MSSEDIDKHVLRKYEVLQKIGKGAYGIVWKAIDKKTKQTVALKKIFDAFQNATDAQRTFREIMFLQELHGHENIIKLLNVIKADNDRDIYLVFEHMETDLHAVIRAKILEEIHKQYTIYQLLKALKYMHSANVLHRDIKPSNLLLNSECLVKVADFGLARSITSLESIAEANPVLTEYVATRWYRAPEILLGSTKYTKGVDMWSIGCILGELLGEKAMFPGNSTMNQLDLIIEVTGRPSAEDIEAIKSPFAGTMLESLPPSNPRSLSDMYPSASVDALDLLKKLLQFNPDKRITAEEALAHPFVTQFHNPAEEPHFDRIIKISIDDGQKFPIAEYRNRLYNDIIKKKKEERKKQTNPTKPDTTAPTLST
# Variants of: B1
# Details: with erk2_dicdi erkB
row,effect of a mutation on the interaction,Variant
1,decreasing interaction,MRFKCFGSEETEQSSKIDKSIETDRRKLRKDVKLLLLGPGESGKSTIFKQMKIIQEDGGYSVEELLEYRAFVYSNCISQMEALLTASAKLNIELEVENKQRAANVLEETIGNEPWLLLAADIKHLWEDKGIKETYAQKDKHFQLNDSAAYFFDNIDRYMREDFVPNEQDVLRCRVRTTGIQESEFTFDKIRLKIVDVGGQRSQRRKWIHCFDCVTAVIFVAAMSDYDQVLREDESVNRTRESLALFKEIVNCDYFKETPIVLFLNKKDLFKEKLKRVPLQSCFSDYTGPNKYKDAAMFIQSQYLAQGPSPRTIYTHATCAVDTENIKFVFRAVRQTILSQALEHF [R107E;R108E]
2,decreasing interaction,MRFKCFGSEETEQSSKIDKSIETDRRKLRKDVKLLLLGPGESGKSTIFKQMKIIQEDGGYSVEELLEYRAFVYSNCISQMEALLTASAKLNIELEVENKQRAANVLRRTIGNEPWLLLAADIKHLWEDKGIKETYAQKDKHFQLNDSAAYFFDNIDRYMREDFVPNEQDVLRCRVRTTGIQESEFTFDKIRLKIVDVGGLRSQRRKWIHCFDCVTAVIFVAAMSDYDQVLREDESVNRTRESLALFKEIVNCDYFKETPIVLFLNKKDLFKEKLKRVPLQSCFSDYTGPNKYKDAAMFIQSQYLAQGPSPRTIYTHATCAVDTENIKFVFRAVRQTILSQALEHF [Q200L]
